Results taken from patent publication US20250066422A1 (published 2025).

target: T1, HLA-A*0201 (human); test: UV-ligand exchange, streptavidin/anti-b2m sandwich ELISA
T1 construct: MHC monomer first loaded with a UV-sensitive peptide that is cleaved and exchanged for the test peptide; captured on streptavidin; also called peptide-receptive MHC molecules
Source text: Candidate peptides for the vaccines according to the present invention were further tested for immunogenicity by in vitro priming assays. The individual peptide-MHC complexes required for these assays were produced by UV-ligand exchange, where a UV-sensitive peptide is cleaved upon UV-irradiation, and exchanged with the peptide of interest as analyzed. Only peptide candidates that can effectively bind and stabilize the peptide-receptive MHC molecules prevent dissociation of the MHC complexes. To determine the yield of the exchange reaction, an ELISA was performed based on the detection of the light chain (β2m) of stabilized MHC complexes.
96 well MAXISorp plates (NUNC) were coated over night with 2ug/ml streptavidin in PBS at room temperature, washed 4× and blocked for 30 min at 37° C. in 2% BSA containing blocking buffer. Refolded HLAA*0201/MLA-001 monomers served as standards, covering the range of 8-500 ng/ml. Peptide-MHC monomers of the UV-exchange reaction were diluted 100 fold in blocking buffer. Samples were incubated for 1 h at 37° C., washed four times, incubated with 2ug/ml HRP conjugated anti-β2m for 1 h at 37° C., washed again and detected with TMB solution that is stopped with […]. Absorption was measured at 450 nm.

Binder | Average exchange yield in % [%]
ALVDHTPYL (synthetic peptide from VCAN) [VCAN-002] | 49
RVLPPSALQSV (synthetic peptide from AURKB) [AURKB-001] | 54
SISDVIAQV (synthetic peptide from ANKH) [ANKH-001] | 52
SLLESNKDLLL (synthetic peptide from SLC3A2) [SLC3A2-001] | 56
NLLAEIHGV (synthetic peptide from DPYSL4) [DPYSL4-001] | 77
ILVSWLPRL (synthetic peptide from NET1) [NET1-001] | 82
GLAEDIDKGEV (synthetic peptide from EEF2) [EEF2-002] | 31
ALYDSVILL (synthetic peptide from DIO2) [DIO2-001] | 50
SLLAQNTSWLL (synthetic peptide from THY1) [THY1-001] | 65
ILFPDIIARA (synthetic peptide from MAGEF1) [MAGEF1-001] | 83
AMATESILHFA (synthetic peptide from PI4KA) [PI4KA-001] | 51
TVAEVIQSV (synthetic peptide from KIF26B) [KIF26B-001] | 68
FQYDHEAFL (synthetic peptide from RCN1, RCN3) [RCN1-001] | 75
ALASVIKEL (synthetic peptide from IFT81) [IFT81-001] | 57
KIQEILTQV (synthetic peptide from IGF2BP3) [IGF2BP3-001] | 46
KVLEILHRV (synthetic peptide from HERC4) [HERC4-001] | 61
AMFENFVSV (synthetic peptide from NCBP1) [NCBP1-001] | 65
VLAPLFVYL (synthetic peptide from FZD1, FZD2, FZD7) [FZD-001] | 52
YLAPFLRNV (synthetic peptide from CNOT1) [CNOT1-001] | 57

Binder | Average exchange yield in % [%]
YLPHAPPFA (synthetic peptide from JUNB) [JUNB-001] | 51
NLIEKSIYL (synthetic peptide from DST) [DST-001] | 50
GLYPDAFAPV (synthetic peptide from ELANE) [ELANE-001] | 62
KIQEMQHFL (synthetic peptide from MMP12) [MMP12-003] | 57
VVDKTLLLV (synthetic peptide from C11orf24) [C11orf24-001] | 47
AILDTLYEV (synthetic peptide from PLEKHA8) [PLEKHA8-001] | 47
SLAGDVALQQL (synthetic peptide from NCAPD2) [NCAPD2-001] | 76
TLISRLPAV (synthetic peptide from RCC1) [RCC1-001] | 77
YVYQNNIYL (synthetic peptide from FAP) [FAP-003] | 31
KLSWDLIYL (synthetic peptide from CERCAM) [CERC-001] | 62
FLHHLEIEL (synthetic peptide from ITGA11) [ITGA11-001] | 53
TVIGFLLPFA (synthetic peptide from P2RY6) [P2RY6-001] | 91
SILTIEDGIFEV (synthetic peptide from HSPA2, HSPA8) [HSP-002] | 47
SLWGGDVVL (synthetic peptide from VPS13B) [VPS13B-001] | 63
FLIPIYHQV (synthetic peptide from ACACA) [ACACA-001] | 61
ILMGTELTQV (synthetic peptide from OLFM1) [OLFM1-001] | 48
AMLAVLHTV (synthetic peptide from C12orf44) [C12orf44-001] | 34
VLSVVEVTL (synthetic peptide from RNF213) [RNF213-001] | 84

Now from value to binder:

Average exchange yield in % [%] | Binder
54 | SLIDADPYL (synthetic peptide from CCNA2) [CCNA2-001]
47 | SLYDNQITTV (synthetic peptide from SLIT1, SLIT2) [SLI-001]
61 | TLTNIIHNL (synthetic peptide from ORMDL1) [ORMDL1-002]
57 | TLSSIKVEV (synthetic peptide from MXRA5) [MXRA5-001]
47 | KLFGEKTYL (synthetic peptide from SERPINB3) [SERPINB3-001]
70 | ALWEKNTHL (synthetic peptide from CEP250) [CEP250-002]
78 | ALYGRLEVV (synthetic peptide from ANKS1A) [ANKS1A-001]
49 | KLLEYIEEI (synthetic peptide from HMMR) [HMMR-001]
67 | ALANQKLYSV (synthetic peptide from MDN1) [MDN1-001]
49 | KIYNEFISV (synthetic peptide from RGS4) [RGS4-001]
19 | SLHFLILYV (synthetic peptide from ATP2A1, ATP2A2) [ATP-001]
57 | SLVAVELEKV (synthetic peptide from COG4) [COG4-001]
48 | ILQDRLNQV (synthetic peptide from CDC6) [CDC6-001]
50 | HLLEDIAHV (synthetic peptide from NEFH) [NEFH-001]
70 | SLAPAGVIRV (synthetic peptide from TLX3) [TLX3-001]
51 | VLLPVEVATHYL (synthetic peptide from SLC34A2) [SLC34A2-001]
